# Data from publication PMC3529917 (2012).
# B1: Frizzled-8 (Fz8/Fc) CRD (protein)
# chain: AKELACQEITVPLCKGIGYNYTYMPNQFNHDTQDEAGLEVHQFWPLVEIQCSPDLKFFLCSMYTPICLEDYKKPLPPCRSVCERAKAGCAPLMRQYGFAWPDRMRCDRLPEQGNPDTLCMDY
# Biological target: complement C1q (Homo sapiens, UniProt P02745, C1q succinimidyl alkyne-labeled, Fz8 CRD IgG/Fc fusion)
# Assay: pull-down with ELISA quantification, Scatchard
binder,measurement,value
B1,Kd,2.8 nM
